This test deals with T1, HGPRBMY11 polypeptide (human G-protein coupled receptor, SEQ ID NO:2) (human, UniProt Q9NS75 17-346).
T1 construct: 330 amino acids; also called GPCR74; GPCR 81
T1 sequence: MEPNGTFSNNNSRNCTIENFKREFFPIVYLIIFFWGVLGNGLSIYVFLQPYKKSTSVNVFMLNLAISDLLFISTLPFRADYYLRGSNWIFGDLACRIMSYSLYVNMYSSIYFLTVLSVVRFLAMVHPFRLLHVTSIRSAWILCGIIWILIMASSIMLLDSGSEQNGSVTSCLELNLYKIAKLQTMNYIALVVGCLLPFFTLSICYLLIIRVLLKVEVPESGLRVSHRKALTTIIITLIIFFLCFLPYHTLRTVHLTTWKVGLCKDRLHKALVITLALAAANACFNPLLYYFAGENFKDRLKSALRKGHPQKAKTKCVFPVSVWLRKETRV
Briefly: phage display panning of M13KE peptide libraries on CHO-K1 cells transfected with HGPRBMY11, after preadsorption on integrin and parental cells; bound phage eluted and sequenced. How it is done:
On the day of panning, growth medium was discarded and cells were washed with 10 ml PBS by allowing the buffer to flow over the cells. The PBS was removed and 10 ml Tris-EDTA detaching buffer (Gibco Cat. # 13150-016; no trypsin) was added for 2 min. Plates were tapped and/or pipetted up and down to detach cells. This was done quickly to minimize the exposure of the cells to this reagent. Cells were pelleted by centrifugation at 3 K, and then washed with 20 ml PBS. Cells were resuspended cells in PBS with 2% milk blocking agent plus protease inhibitor (EDTA-free; Roche Cat. # 1 873 580). For each library, cell suspensions of ˜500 ul were used. Cells were blocked for 30-60 min with gentle rocking at room temperature. The integrin-coated wells were washed 3× in PBST, then blocked with 2% BSA in PBS for 30 min or more. To preadsorb against integrin, input phage was added to the integrin-coated wells, and incubated for 30 min or more.
At this stage, the blocked parental cells were divided into the required number of aliquots (500 ul aliquot/library). The phage supernatants were added from the integrin-preadsorption step. Preadsorption against the parental cells was carried out for 30 min or more with gentle rocking. […]
Standard procedures were used. […] Colonies were grown in liquid medium and analyzed by standard sequencing procedures.

No end group written: not given here.

B1: LFASSDWSSFPVLVF (SEQ ID NO:81) (peptide)
peptide: LFASSDWSSFPVLVF
modifications: also: displayed fused to phage coat protein, not free peptide
notes: In the assay it stood fused to the phage coat protein, not as a free peptide; The synthesis of free N-acetyl peptide amides is described only as a method; also called Peptide Modulator of HGPRBMY11
B1: the binding result is recorded as “binds”.

B2: THGFGHRVWSVPLRS (SEQ ID NO:96) (peptide)
peptide: THGFGHRVWSVPLRS
notes: In the assay it stood fused to the phage coat protein; also called Peptide Modulator of HGPRBMY11
As for B2, the binding result is on record as “binds”.
